Assay results as given in patent US20080207488A1, “Method for Detecting Peptides Comprising a Cross-B Structure” (priority 2005, published 2008).

Tests used:
[1] = target: tissue-type plasminogen activator (tPA) (human) (UniProt P00750); experiment: cell-based or functional assay
[2] = target: human coagulation factor VIII isolated from healthy volunteers (Aafact) (human) (UniProt P00451); experiment: ELISA, therapeutic coated, tPA concentration series, one-site binding fit
Chain of human coagulation factor VIII isolated from healthy volunteers (Aafact) (human) (P00451 20-2351): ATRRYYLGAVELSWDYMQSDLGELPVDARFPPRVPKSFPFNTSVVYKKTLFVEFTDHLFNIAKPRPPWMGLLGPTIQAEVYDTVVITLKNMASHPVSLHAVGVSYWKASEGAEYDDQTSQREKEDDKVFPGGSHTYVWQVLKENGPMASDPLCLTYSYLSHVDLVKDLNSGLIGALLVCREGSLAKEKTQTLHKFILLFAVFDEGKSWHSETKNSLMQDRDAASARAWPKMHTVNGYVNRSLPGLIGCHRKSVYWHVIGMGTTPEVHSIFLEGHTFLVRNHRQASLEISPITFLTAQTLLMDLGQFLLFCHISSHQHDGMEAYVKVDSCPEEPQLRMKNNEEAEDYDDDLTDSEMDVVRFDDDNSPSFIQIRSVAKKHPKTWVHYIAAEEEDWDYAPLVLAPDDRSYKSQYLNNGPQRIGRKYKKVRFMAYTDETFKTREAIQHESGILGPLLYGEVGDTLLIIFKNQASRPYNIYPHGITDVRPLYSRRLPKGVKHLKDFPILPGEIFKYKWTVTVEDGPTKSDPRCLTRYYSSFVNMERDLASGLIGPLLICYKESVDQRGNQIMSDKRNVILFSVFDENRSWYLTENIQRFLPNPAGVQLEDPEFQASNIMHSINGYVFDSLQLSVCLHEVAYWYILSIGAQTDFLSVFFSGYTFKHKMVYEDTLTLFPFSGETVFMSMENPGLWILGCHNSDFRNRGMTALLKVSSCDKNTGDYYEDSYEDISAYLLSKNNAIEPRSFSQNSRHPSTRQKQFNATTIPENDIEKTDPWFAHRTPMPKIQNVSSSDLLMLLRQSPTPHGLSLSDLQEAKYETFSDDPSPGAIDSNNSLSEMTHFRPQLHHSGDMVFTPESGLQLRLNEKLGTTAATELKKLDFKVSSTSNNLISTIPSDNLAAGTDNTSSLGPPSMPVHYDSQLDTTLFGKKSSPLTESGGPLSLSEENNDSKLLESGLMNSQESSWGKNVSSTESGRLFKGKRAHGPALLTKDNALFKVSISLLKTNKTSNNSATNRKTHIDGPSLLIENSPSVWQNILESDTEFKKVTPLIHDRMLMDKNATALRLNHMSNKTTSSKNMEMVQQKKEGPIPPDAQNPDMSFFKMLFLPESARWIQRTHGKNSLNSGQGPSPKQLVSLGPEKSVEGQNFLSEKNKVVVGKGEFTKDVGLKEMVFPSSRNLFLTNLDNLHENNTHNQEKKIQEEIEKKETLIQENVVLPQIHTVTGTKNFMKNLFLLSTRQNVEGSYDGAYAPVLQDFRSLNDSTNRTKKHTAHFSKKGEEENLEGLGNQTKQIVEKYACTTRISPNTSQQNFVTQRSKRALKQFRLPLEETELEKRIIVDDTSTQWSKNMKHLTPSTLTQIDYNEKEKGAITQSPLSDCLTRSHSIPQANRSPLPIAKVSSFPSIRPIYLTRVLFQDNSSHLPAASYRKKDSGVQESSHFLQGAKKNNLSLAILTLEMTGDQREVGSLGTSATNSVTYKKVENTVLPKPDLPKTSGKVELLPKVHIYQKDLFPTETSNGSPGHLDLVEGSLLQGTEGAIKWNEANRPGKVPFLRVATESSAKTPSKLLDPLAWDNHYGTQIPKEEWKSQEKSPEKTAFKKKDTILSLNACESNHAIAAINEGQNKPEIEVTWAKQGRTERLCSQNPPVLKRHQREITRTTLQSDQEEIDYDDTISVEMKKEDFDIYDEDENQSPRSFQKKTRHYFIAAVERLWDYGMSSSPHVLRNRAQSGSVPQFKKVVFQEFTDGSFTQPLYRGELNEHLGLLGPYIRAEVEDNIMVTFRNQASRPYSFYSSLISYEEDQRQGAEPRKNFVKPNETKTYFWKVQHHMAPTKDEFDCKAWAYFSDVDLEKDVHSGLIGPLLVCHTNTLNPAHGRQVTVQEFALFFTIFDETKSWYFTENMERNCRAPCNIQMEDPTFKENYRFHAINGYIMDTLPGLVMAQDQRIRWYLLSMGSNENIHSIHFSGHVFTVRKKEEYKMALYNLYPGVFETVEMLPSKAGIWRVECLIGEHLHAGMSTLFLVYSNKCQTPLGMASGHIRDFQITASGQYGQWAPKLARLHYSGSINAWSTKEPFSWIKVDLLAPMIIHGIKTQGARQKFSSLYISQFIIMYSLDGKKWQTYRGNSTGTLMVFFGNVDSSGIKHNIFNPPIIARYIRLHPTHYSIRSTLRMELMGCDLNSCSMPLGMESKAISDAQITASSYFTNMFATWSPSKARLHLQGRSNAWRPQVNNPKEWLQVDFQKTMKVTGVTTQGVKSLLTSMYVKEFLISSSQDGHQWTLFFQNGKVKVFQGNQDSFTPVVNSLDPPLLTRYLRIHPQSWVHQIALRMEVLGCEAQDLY

tPA activation, Max. Activation (%) [1]	Bmax (OD450 nm) [2]	Kd [2]	Substance
0%	–	–	human-murine chimeric monoclonal antibody (Remicade-infliximab)
–	0.54 OD450 nm	230 nM	tissue-type plasminogen activator (tPA) (from UniProt P00750 36-562) (enzyme)
70.9%	–	–	rapid acting human insulin analogue (NovoRapid Flexpen) (from UniProt P01308 90-110; P01308 25-54) (ligand)
0%	–	–	Etanercept (Enbrel) (Fc fusion)
0%	–	–	Epoietin Alfa (from UniProt P01588 28-192) (ligand)
4.22%	–	–	human coagulation factor VIII isolated from healthy volunteers (Aafact) (from UniProt P00451 20-2351)
11.2%	–	–	human glucagon (Glucagen) (from UniProt P01275 53-81) (peptide)
